According to paper PMC9478397:

Substrate: Nc1nc(N[C@@H]2O[C@H](COP(=O)(O)O)[C@@H](O)[C@H]2O)c(NC=O)c(=O)[nH]1
Assay: formamidase assay, fluorescence HPLC of derivatized product (DARoPP / formate)
Type: biochemical, Sinorhizobium meliloti
Conditions: 50 mM TES pH 7.2, 10% glycerol, 0.25 mM DTT, 1 mM MgCl2, 30 °C, 8 min

B1: Sm-BrbF (SMc02977) (Sinorhizobium meliloti 1021) (protein)
chain: MSLPKPRWTDNSAALEPVERRDWIAVLPLGAHEQHGPHLPFETDRLIAAGIVERVIAALPQALPVTFLPVEPVGYSIEHMDVSGTRTLAYDEAIERWLGIAESLAGLGVRKFVMLNAHGGNSPLMTIVATEARIRFRMLAVATSWTRFGQPDGWISAKDKAVDIHGGDIETSVMLALHPDKVDMAKARAFPSRQGEFALSFKHLRAYGPHAFGWKMSDLNPDGVAGNAAAATAERGEALLAHAAKGIIELLEDVNAFDAGELD
notes: full ORF in pET-30 Ek/LIC, E. coli BL21; His tag cleaved with enterokinase, untagged
  Km: 152.44 ± 33.59 µM
